Paper PMC7935935, “Conservation of the glycogen metabolism pathway underlines a pivotal function of storage polysaccharides in Chlamydiae” (Communications Biology, 2021)

How the values were obtained:
[1] = target: T1, GlgA–GlgB-WC (Waddlia chondrophila, UniProt D6YUJ8); assay: […]-glucosyl incorporation into glycogen; zymogram; type: cell-based; conditions: glycogen as acceptor, 30 °C; glycogen synthase domain; labelled compound
T1 construct: gene wcw_0437; natural GlgA-GlgB gene fusion, his-tagged, modified pET15b, E. coli BW25113 delta-glgA; crude extract on zymogram
T1 sequence (D6YUJ8 1-1463): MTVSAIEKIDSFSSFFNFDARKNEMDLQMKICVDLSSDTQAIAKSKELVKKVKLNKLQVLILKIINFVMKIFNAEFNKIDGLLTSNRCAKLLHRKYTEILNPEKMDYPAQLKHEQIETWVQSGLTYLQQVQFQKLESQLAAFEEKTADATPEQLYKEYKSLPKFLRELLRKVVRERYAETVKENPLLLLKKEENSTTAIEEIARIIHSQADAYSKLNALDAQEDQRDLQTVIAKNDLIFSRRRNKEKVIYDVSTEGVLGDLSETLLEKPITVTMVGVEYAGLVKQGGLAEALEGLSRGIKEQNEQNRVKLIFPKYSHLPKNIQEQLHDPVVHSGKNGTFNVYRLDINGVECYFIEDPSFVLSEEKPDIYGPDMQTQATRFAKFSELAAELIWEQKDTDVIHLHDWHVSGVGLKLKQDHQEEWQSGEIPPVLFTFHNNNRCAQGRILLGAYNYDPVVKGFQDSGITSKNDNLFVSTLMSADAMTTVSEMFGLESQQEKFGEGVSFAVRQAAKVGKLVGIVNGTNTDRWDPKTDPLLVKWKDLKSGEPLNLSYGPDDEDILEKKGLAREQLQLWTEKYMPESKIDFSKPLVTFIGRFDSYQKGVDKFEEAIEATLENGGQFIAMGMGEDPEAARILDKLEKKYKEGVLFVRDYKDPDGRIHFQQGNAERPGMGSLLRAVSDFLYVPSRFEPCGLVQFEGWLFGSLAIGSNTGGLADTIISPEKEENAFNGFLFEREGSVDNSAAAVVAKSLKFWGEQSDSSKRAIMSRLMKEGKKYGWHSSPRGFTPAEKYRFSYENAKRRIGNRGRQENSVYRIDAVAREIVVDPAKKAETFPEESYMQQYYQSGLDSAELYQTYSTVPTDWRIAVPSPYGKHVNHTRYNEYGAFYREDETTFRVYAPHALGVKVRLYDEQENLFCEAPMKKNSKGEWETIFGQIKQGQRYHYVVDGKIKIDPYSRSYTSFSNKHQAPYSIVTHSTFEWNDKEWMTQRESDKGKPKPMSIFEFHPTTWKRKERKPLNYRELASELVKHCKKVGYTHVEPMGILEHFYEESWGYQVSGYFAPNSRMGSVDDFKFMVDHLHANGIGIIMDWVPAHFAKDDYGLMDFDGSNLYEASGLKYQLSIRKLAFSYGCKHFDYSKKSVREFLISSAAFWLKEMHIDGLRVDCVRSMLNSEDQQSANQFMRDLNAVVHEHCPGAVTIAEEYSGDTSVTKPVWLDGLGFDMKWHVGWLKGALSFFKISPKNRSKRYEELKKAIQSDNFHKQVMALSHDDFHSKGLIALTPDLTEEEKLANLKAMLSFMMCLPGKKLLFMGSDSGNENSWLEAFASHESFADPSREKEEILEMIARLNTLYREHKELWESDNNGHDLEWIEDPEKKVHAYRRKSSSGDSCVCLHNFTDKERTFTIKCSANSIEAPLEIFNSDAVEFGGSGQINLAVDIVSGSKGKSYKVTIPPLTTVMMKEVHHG

[2] = target: T2, GlgE-WC (Waddlia chondrophila, UniProt D6YT22); assay: maltosyl transfer, FACE capillary electrophoresis and Pi release; type: biochemical; conditions: 30 °C
T2 sequence (D6YT22 1-649): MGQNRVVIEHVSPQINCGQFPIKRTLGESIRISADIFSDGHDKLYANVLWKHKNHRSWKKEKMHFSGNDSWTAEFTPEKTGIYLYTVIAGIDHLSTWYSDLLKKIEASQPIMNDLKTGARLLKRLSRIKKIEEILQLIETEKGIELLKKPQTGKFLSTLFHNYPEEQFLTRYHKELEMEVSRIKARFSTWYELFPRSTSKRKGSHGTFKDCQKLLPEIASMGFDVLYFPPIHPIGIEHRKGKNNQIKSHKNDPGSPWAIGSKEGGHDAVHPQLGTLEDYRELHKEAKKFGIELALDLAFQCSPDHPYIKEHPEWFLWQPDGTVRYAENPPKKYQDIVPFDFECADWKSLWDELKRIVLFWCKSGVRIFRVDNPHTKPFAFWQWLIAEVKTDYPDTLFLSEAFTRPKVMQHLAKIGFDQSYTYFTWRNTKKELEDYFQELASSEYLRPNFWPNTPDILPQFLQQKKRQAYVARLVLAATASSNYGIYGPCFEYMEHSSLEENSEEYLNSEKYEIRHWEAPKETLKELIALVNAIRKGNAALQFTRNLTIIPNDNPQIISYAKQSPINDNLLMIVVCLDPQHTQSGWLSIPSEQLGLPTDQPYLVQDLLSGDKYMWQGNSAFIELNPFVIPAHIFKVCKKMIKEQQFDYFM

[3] = system: O=P(O)(O)O[C@H]1O[C@H](CO)[C@@H](O[C@H]2O[C@H](CO)[C@@H](O)[C@H](O)[C@H]2O)[C@H](O)[C@H]1O; assay: purified protein; conditions: 10 mM maltoheptaose as acceptor per Fig. 5 legend (b24 text assigns the acceptors the other way round), pH 6.8, 30 °C, positive cooperativity
[4] = system: OC[C@H]1O[C@H](O[C@H]2O[C@H](CO)[C@@H](O)[C@H](O)[C@H]2O)[C@H](O)[C@@H](O)[C@@H]1O; assay: purified protein; conditions: TreS domain, 1 mM MnCl2, no ATP, 125 mM imidazole pH 8, 150 mM NaCl, 30 °C
[5] = target: bifunctional TreS-Mak of Estrella lausannensis (trehalose synthase fused to maltokinase) (Estrella lausannensis); assay: SEC; Superose 6 10/300 GL, PBS (10 mM orthophosphate, 140 mM NaCl, pH 7.4), 4 °C, 0.3 mL/min; apparent molecular weight against standard proteins
[6] = target: the molecule itself; assay: as above

Molecule: Nc1ncnc2c1ncn2[C@@H]1O[C@H](COP(=O)(O)OP(=O)(O)O[C@H]2O[C@H](CO)[C@@H](O)[C@H](O)[C@H]2O)[C@@H](O)[C@H]1O [ADP-glc, ADP-glucose]
- 14C-glucosyl incorporation into glycogen; zymogram [1]: is functional but highly specific for ADP-glucose

Molecule: OC[C@H]1O[C@H](O[C@H]2[C@H](O)[C@@H](O)[C@@H](O[C@H]3[C@H](O)[C@@H](O)[C@@H](O[C@H]4[C@H](O)[C@@H](O)[C@@H](O[C@H]5[C@H](O)[C@@H](O)[C@@H](O[C@H]6[C@H](O)[C@@H](O)[C@@H](O[C@H]7[C@H](O)[C@@H](O)C(O)O[C@@H]7CO)O[C@@H]6CO)O[C@@H]5CO)O[C@@H]4CO)O[C@@H]3CO)O[C@@H]2CO)[C@H](O)[C@@H](O)[C@@H]1O (stereo partly shown) [DP7, maltoheptaose]
- maltosyl transfer, FACE capillary electrophoresis and Pi release ([2]; acceptor with 1.6 mM M1P, also disproportionated without M1P): GlgE activities harbor an α-1,4-glucanotransferase activity exclusively with glucans composed of six or seven

Molecule: O=P(O)(O)O[C@H]1O[C@H](CO)[C@@H](O[C@H]2O[C@H](CO)[C@@H](O)[C@H](O)[C@H]2O)[C@H](O)[C@H]1O [M1P, maltose-1-phosphate]
- maltosyl transfer, FACE capillary electrophoresis and Pi release ([2]; 5 mM malto-oligosaccharide acceptors, 1.6 mM M1P): both GlgE activities enable the transfer the maltosyl moiety of M1P onto the glucan primer

Molecule: GlgE-EL (Estrella lausannensis)
- K0.5 [3]: 0.33 ± 0.02 mM

Molecule: TreS-Mak of Estrella lausannensis (Estrella lausannensis)
- Km [4]: 42.3 ± 2.7 mM

Molecule: bifunctional TreS-Mak of Estrella lausannensis (trehalose synthase fused to maltokinase) (enzyme)
- stoichiometry N [5]: 2

B1: GlgE of Estrella lausannensis (maltosyl-1-phosphate transferase; α-maltose-1-phosphate: 1,4-α-D-glucan 4-α-D-maltosyltransferase) (enzyme, UniProt A0A0H5DRC6 1-675, looked up)
chain: MSVSAAEKRQLLTQVKASGSMYTNTLHSIVIQNISPKPEPFGPAKRVLLEQVEVEADIFTDPHTKLEADLIVKAPGLRKTTRIPFHPLVNDRFKAVFVPDTPGTYSFFVEAWVNPAALWQEDLRKKQEARLDLTVDLQIGAALLVEVADLLPPEESVKLLQIAKKLREQKGAEAVAFDPEIARLGRLARPKSRQGVCSQEQEVFVTRKKALFSTWYELFPRSCSGTMRHGTFNDVVAKLPRISRMGFDVLYLPPIHPIGKTKRKGKNNALTALPDDPGSPWAVGSHEGGHDAIQRELGTLADFERLVKEAESLGIEIALDIALQCSPDHPYLKEHPEWFLKRPDGTYQYAENPPKKYEDIIPFHFTEDNKDTLFREILRIFLFWMKRGVRIFRVDNPHTKPFALWEYVIGEVRKVDSGVIFLAEAFTRPKIMHHLARIGFDQSYTYFTWRNTKWELTEYLTELTKTEARNYLRPNFFVNTPDILPESLQWGGRAAFLTRLILAATLSSSYGIYGPAFEQMLSEAVPGKEDYIDSEKYEIKPWDFEKKGTISETIEIVNRIRKENPALQATGNLEFYATDNDYLLAYGKQGPQGESLLIVVNLDHYHTQSGYVTLPLMHLGIQEKEPYLVDDLLSGERYIWEGERNYIQLSPHLVPAHIFRIRPKMLRENNFDYFI
notes: GlgE (maltosyl-1-phosphate transferase) of Estrella lausannensis, glgE gene amplified from genomic DNA; monomer of 75-76 kD; Cloned in pET15b; also called GlgE-EL; source: E. coli Rosetta (DE3)
- stoichiometry N [6]: 2
